How the values were obtained:
[1] = In vivo bioconversion of cannabinoid substrate to glycoside in E. coli expressing glycosyl transferases; format: cell-based
Procedure: The Sr76G1 expression plasmid (PL-55(Sr76G1_GA (SEQ ID NO:123,124)) was also included (resulting in E. coli strain EC-55) to test whether the absence of activity observed in vitro was also observed in vivo. Strains were subsequently incubated overnight in 5 mL of LB media supplemented with ampicillin in 10 mL pre-culture tubes at 37° C. Subsequently, cells were inoculated to a starting OD600 of 0.1 in 500 μL of LB media supplemented with ampicillin in a 96 deep-well plate and incubated at 30° C. for 6 hours. A cannabinoid substrate was then dissolved in ethanol and added to the culture media along with a suitable inducing agent (IPTG) in the following final concentrations:
Cannabinoid substrate: 250 μM
Cells were cultivated with the added ethanol, cannabinoid substrate and IPTG for a further 66 hours. Cannabinoid glycosides were extracted and analyzed by HPLC analysis as described above. The decrease in cannabinoid concentration and accumulation of cannabinoid glycosides were quantified and percent conversion calculated for each glycoside. As shown in table 51 below E. coli strains expressing glycosyl transferases could convert a range of cannabinoids into their corresponding glycosides.

[2] = In vitro glycosyl transferase performance, purified enzymes, % conversion of cannabinoids to cannabinoid glycosides; format: biochemical
Procedure: For in vitro studies of glycosyl transferase performance in glycosylating cannabinoids, purified Glycosyl transferases were prepared as follows:
5 mL of 2× concentrated LB medium+Ampicillin (50 μg/m L) was inoculated with E. coli XJb (DE3) strains expressing a glycosyl transferase of interest and incubated overnight at 30° C. with shaking. The following day, cell cultures were transferred into 500 mL of 2× concentrated LB medium+Ampicillin (50 μg/mL) and incubated overnight at 30° C. with shaking. The following day, the cell cultures were transferred to 1 L of 2× concentrated LB medium+Ampicillin (50 μg/mL)+3 mM arabinose+0.1 mM IPTG. Cells were incubated for 24 h at 20° C. with shaking. The following day, the cells were collected by centrifugation at 46500×g for 10 mins at 4° C. Cells were resuspended in 20 mL ice-cold GT buffer (50 mM Tris-HCl pH7.4+1 mM phenylmethanesulfonyl fluoride+1 cOmplete™, mini, EDTA-free Protease Inhibitor Cocktail tablet (Roche)). The resuspended material was transferred to a 50 mL falcon tube and kept at −80° C. for at least 15 mins. Falcon tubes were then thawed at room temperature, as the tubes were thawing the following reagents were added; 2.6 mM MgCl2, 1 mM CaCl2, 250 μL of a 1.4 mg/ml DNase solution (Sigma) dissolved in MilliQ water. Tubes were gently inverted to mix then were incubated for 5 mins at 37° C. Binding buffer was then added to the tubes (50 mM Tris-HCl pH7.4, 10 mM imidazole, 500 mM NaCl. 11.25 mL MilliQ water) and the pH adjusted to 7.4 with HCl. The mix was centrifuged at 15550×g for 15 mins at 4° C., the supernatant transferred to a fresh 50 mL falcon tubes and centrifuged again to remove any remaining cellular debris at 48400×g for 20 minutes at 4° C. While the enzyme prep was centrifuging, 3 mL of HIS-Select (available from Sigma P6611) column material was added to a fresh 50 mL tube and washed by adding MilliQ water up to 50 mL, centrifuging at 2000×g for 2 mins and discarding the supernatant. This washing step was repeated. Finally, MilliQ water was added to the HIS-Select material to an approximate 50% volume. Collected supernatant from the centrifuged enzyme preparation was transferred to the tube containing the HIS-Select material through a Miracloth (available from Merck Millipore), and then incubated at 4° C. with gently shaking by inversion for 2 h. After 2 h the mix was centrifuged at 2000×g for 4 minutes at 4° C. and the supernatant discarded. The remaining HIS-Select material was washed twice with 1× binding buffer (50 mM Tris-HCl, 0.5M NaCl, 10 mM Imidazole, pH 7.4) with centrifugation at 2000×g for 4 minutes at 4° C. The HIS-Select material was resuspended in 5 mL 1× binding buffer and transferred to a Poly-Prep®Chromatography Column (available from BioRad, 7311550). The HIS-Select material was kept at 4° C. and washed twice with 1× binding buffer by filling up the column and allowing it to drip through. Finally, purified Glycosyl transferases were eluted from the HIS-Select material by adding 7.5 mL of elution buffer (50 mM Tris-HCl, 500 mM Imidazole, pH7.4) and collecting the flow through. Enzymes were used immediately in in vitro enzyme assays or stored at −20° C. in 50% glycerol until needed.
In vitro conversion of various cannabinoids to cannabinoid glycosides was carried out according to table 21. Alkaline phosphatase was provided by New England Biolabs (M0371S). Cannabinoids were dissolved in methanol. The UDP-sugar (e.g. UDP-glucose) was provided by a commercial supplier (e.g. Sigma) or produced by in vitro enzymatic conversion from a commercially available UDP-sugar as shown in Example 21.
The reaction mixture was scaled up or down as required. The reaction mixture was incubated without shaking at 30° C. for 24 hours. Extraction and analysis were performed as described above for this example. […]

[3] = In vitro conversion of CBD with combined glycosyl transferases (sugar-sugar linkages); format: biochemical
From the text: The glycosyl transferases described herein can broadly be grouped into either glycosyl transferases active on the cannabinoid aglycones or glycosyl transferases active on cannabinoid glycosides. The latter group, instead of attaching a sugar moiety onto a free hydroxy group on the cannabinoid molecule, attaches a sugar moiety onto the sugar group of the cannabinoid glycoside. In Example 13 a range of glycosyl transferases were discovered that were active only on cannabinoid aglycones (e.g. PL-159(Pt88G_GA) (SEQ ID NO: 147, 148)) as well a range of glycosyl transferases which were active on both cannabinoid aglycones and cannabinoid glycosides. […] Two of these enzymes (PL-55(Sr76G1_GA) (SEQ ID NO: 123, 124) and PL-32(OsEUGT11_GA) (SEQ ID NO: 115, 116)) are described in prior art and are well known to catalyze a range of sugar on sugar reactions and were recently described as being able to perform sugar on sugar reactions on cannabinoid glycosides. […] In vitro assays were performed and analyzed as described previously. […] By comparing the LC-MS/QTOF retention time, measured mass and fragmentation pattern as well as the c Log P it could be elucidated that Sr76G1, OsEUGT11 and Si94D were catalysing sugar on sugar reactions with different linkages. […]

B1: Sr76G1: glycosyl transferase isolated from S. rebaudiana, SEQ ID NO: 123, 124, described in prior art (protein)
chain: MDQMAKIDEKKPHVVFIPFPAQSHIKCMLKLARILHQKGLYITFINTDTNHERLVASGGTQWLENAPGFWFKTVPDGFGSAKDDGVKPTDALRELMDYLKTNFFDLFLDLVLKLEVPATCIICDGCMTFANTIRAAEKLNIPVILFWTMAACGFMAFYQAKVLKEKEIVPVKDETYLTNGYLDMEIDWIPGMKRIRLRDLPEFILATKQNYFAFEFLFETAQLADKVSHMIIHTFEELEASLVSEIKSIFPNVYTIGPLQLLLNKITQKETNNDSYSLWKEEPECVEWLNSKEPNSVVYVNFGSLAVMSLQDLVEFGWGLVNSNHYFLWIIRANLIDGKPAVMPQELKEAMNEKGFVGSWCSQEEVLNHPAVGGFLTHCGWGSIIESLSAGVPMLGWPSIGDQRANCRQMCKEWEVGMEIGKNVKRDEVEKLVRMLMEGLEGERMRKKALEWKKSATLATCCNGSSSLDVEKLANEIKKLSRN
**Q.** Which “glycosyl transferase activity in vivo” value ([1]; E. coli strain EC-55) does the source give for B1 here?
**A.** lack of activity

**Q.** What about the “glycosyltransferase activity using cannabinoid aglycones as substrate” value ([2]; any cannabinoid aglycone) of the same molecule?
**A.** no glycosyltransferase activity was detected

B2: Cs73Y: glycosyl transferase, SEQ ID NO: 157 (207 for the yeast codon-optimized gene) (protein)
chain: MGSEGRQLHIFMFPFMAHGHMIPIVDMAKLFASRGIKITIVTTPLNSISISKSLHNCSPNSLIQLLILKFPAAEAGLPDGCENADSIPSMDLLPKFFEAVSLLQPPFEEALHNNRPDCLISDMFFPWTNDVADRVGIPRLIFHGTSCFSLCSSEFMRLHKPYQHVSSDTEPFTIPYLPGDIKLTKMKLPIFVRENSENEFSKFITKVKESESFCYGVVVNSFYELEAEYVDCYKDVLGRKTWTIGPLSLTNTKTQEITLRGRESAIDEHECLKWLDSQKPNSVVYVCFGSLAKFNSAQLKEIAIGLEASGKKFIWVVRKGKGEEEEEEQNWLPEGYEERMEGTGLIIRGWAPQVLILDHPSVGGFVTHCGWNSTLEGVAAGVPMVTWPVGAEQFYNEKLVTEVLKTGVGVGVQKWAPGVGDFIESEAVEKAIRRIMEKEGEEMRNRAIELGKKAKWAVGEEGSSYSNLDALIEELKSLAF
**Q.** For B2, which “conversion of fed cannabinoid to cannabinoid glycoside in vivo” value ([1]; E. coli, 250 μM CBN fed, to OB23) is on record?
**A.** 100%

B3: Si94D: glycosyl transferase active on cannabinoid glycosides, SEQ ID NO: 145, 146 (protein)
chain: MDTRKRSIRILMFPWLAHGHISAFLELAKSLAKRNFVIYICSSQVNLNSISKNMSSKDSISVKLVELHIPTTILPPPYHTTNGLPPHLMSTLKRALDSARPAFSTLLQTLKPDLVLYDFLQSWASEEAESQNIPAMVFLSTGAAAISFIMYHWFETRPEEYPFPAIYFREHEYDNFCRFKSSDSGTSDQLRVSDCVKRSHDLVLIKTFRELEGQYVDFLSDLTRKRFVPVGPLVQEVGCDMENEGNDIIEWLDGKDRRSTVFSSFGSEYFLSANEIEEIAYGLELSGLNFIWVVRFPHGDEKIKIEEKLPEGFLERVEGRGLVVEGWAQQRRILSHPSVGGFLSHCGWSSVMEGVYSGVPIIAVPMHLDQPFNARLVEAVGFGEEVVRSRQGNLDRGEVARVVKKLVMGKSGEGLRRRVEELSEKMREKGEEEIDSLVEELVTVVRRRERSNLKSENSMKKLNVMMMENREGMLSENA
**Q.** Which “efficiency of 1-6 glucose-glucose linkage (gentiobioside) formation” value ([3]; combined with Pt88G, CBD and UDP-glucose as substrates) does the source give for B3 here?
**A.** 100%

B4: PL-159(Pt88G_GA) (protein)
chain: MEDTIVLYPSPGRGHLFSMVELGKQILEHHPSISITIIISAMPTESISIDDPYFSTLCNTNPSITLIHLPQVSLPPNTSFSPLDFVASFFELPELNNTNLHQTLLNLSKSSNIKAFIIDFFCSAAFEFVSSRHNIPIYFFYTTCASGLSMFLHLPILDKIITKSLKDLDIIIDLPGIPKIPSKELPPAISDRSHRVYQYLVDTAKLMIKSAGLIINTFELLERKALQAIQEGKCGAPDEPVPPLFCVGPLLTTSESKSEHECLTWLDSQPTRSVLFLCFGSMGVFNSRQLRETAIGLEKSGVRFLWVVRPPLADSQTQAGRSSTPNEPCLDLLLPEGFLERTKDRGFLVNSWAPQVEILNHGSVGGFVTHCGWNSVLEALCAGVPMVAWPLYAEQRMNRIFLVEEMKVALAFREAGDDHFVNAAELEERVIELMNSKKGEAVRERVLKLREDAVVAKSDGGSSCIAMAKLVDCFKKG
**Q.** Which “% conversion of CBD to OB1 (CBD-1′-O-β-D-glucoside)” value ([2]; glycosyl transferase in vitro, Table 24) does the source give for B4 here?
**A.** 97.4%

**Q.** What about the “% conversion of CBD to OB13 (CBD-1′-O-α-L- rhamnoside)” value ([2]; glycosyl transferase in vitro, Table 25) of the same molecule?
**A.** 2.0%

**Q.** And the “% conversion of CBD to OB9 (CBD-1′-O-β-D-xyloside)” value ([2]; glycosyl transferase in vitro, Table 26)?
**A.** 12.4%

**Q.** And the “% conversion of CBDV to OB24 (CBDV-1′-O-β-D-glucoside)” value ([2]; glycosyl transferase in vitro, Table 33)?
**A.** 89.2%

**Q.** And the “% conversion of CBDA to OB31 (CBDA-1′-O-β-D-glucoside)” value ([2]; glycosyl transferase in vitro, Table 37)?
**A.** 12.0%

**Q.** What about the “% conversion, CBG to OB32 (CBG-1′-O-β-D-glucoside)” value ([2]; substrate CBG, product OB32, glycosyl transferase in vitro) of the same molecule?
**A.** 51.9%

**Q.** What about the “amount of CBD converted to OB1 (CBD-1′-O-β-D-glucoside) expressed as a percentage” value ([3]; substrate CBD, in vitro) of the same molecule?
**A.** 97.5%

Reference: US20220290200A1, “GENETICALLY MODIFIED HOST CELLS PRODUCING GLYCOSYLATED CANNABINOIDS” (OCTARINE BIO IVS, priority 2019, published 2022)
